Data from US9802997B2, “Peptides and combination of peptides for use in immunotherapy against various tumors” (immatics biotechnologies GmbH, priority 2015, dated 2017).

molecular target: HLA-A*02:01 (Homo sapiens, UniProt P04439, D140Y/D185E/D98H/E176V/E277Q/G131W/G231S/I119V/I121R/I166T/I218V/L300P/L318F/N151K/N90K/P208A/P217A/Q86G/Q94H/R138H/R169H/T345S); experiment: MHC binding assay (UV-ligand exchange, beta2m ELISA); conditions: binding to HLA-A*02:01, β2m ELISA
Text: Candidate peptides for T cell based therapies according to the present invention were further tested for their MHC binding capacity (affinity). The individual peptide-MHC complexes were produced by UV-ligand exchange, where a UV-sensitive peptide is cleaved upon UV-irradiation, and exchanged with the peptide of interest as analyzed. Only peptide candidates that can effectively bind and stabilize the peptide-receptive MHC molecules prevent dissociation of the MHC complexes. To determine the yield of the exchange reaction, an ELISA was performed based on the detection of the light chain (β2m) of stabilized MHC complexes. The assay was performed as generally described in Rodenko et al. (Rodenko et al., 2006).
96 well MAXISorp plates (NUNC) were coated over night with 2 ug/ml streptavidin in PBS at room temperature, washed 4× and blocked for 1 h at 37° C. in 2% BSA containing blocking buffer. Refolded HLA-A*02:01/MLA-001 monomers served as standards, covering the range of 15-500 ng/ml. Peptide-MHC monomers of the UV-exchange reaction were diluted 100 fold in blocking buffer. Samples were incubated for 1 h at 37° C., washed four times, incubated with 2 ug/ml HRP conjugated anti-β2m for 1 h at 37° C., washed again and detected with TMB solution that is stopped with […]. Absorption was measured at 450 nm. Candidate peptides that show a high exchange yield (preferably higher than 50%, most preferred higher than 75%) are generally preferred for a generation and production of antibodies or fragments thereof, and/or T cell receptors or fragments thereof, as they show sufficient avidity to the MHC molecules and prevent dissociation of the MHC complexes.

Peptide exchange (MHC class I binding score, peptide exchange yield), ++ (≧20% = ++):
192 (TLLPSSGLVTL; listed as Homo sapiens) [compound 192], 272 (FVMEGEPPKL; listed as Homo sapiens) [compound 272], 141 (NIDINNNEL; listed as Homo sapiens) [compound 141], 20 (ALVEKGEFAL; listed as Homo sapiens) [compound 20], 81 (ILAEEPIYI; listed as Homo sapiens) [compound 81], 134 (SLYKSFLQL; listed as Homo sapiens) [compound 134], 203 (FLFVDPELV; listed as Homo sapiens) [compound 203], 176 (VQSGLRILL; listed as Homo sapiens) [compound 176], 83 (GLLENSPHL; listed as Homo sapiens) [compound 83], 69 (LKVLKADVVL; listed as Homo sapiens) [compound 69], 74 (GLAFLPASV; listed as Homo sapiens) [compound 74], 188 (VLGEEQEGV; listed as Homo sapiens) [compound 188], 170 (FIAAVVEKV; listed as Homo sapiens) [compound 170], 268 (SLDKDIVAL; listed as Homo sapiens) [compound 268], 142 (LLDAAHASI; listed as Homo sapiens) [compound 142], 105 (AMLASQTEA; listed as Homo sapiens) [compound 105], 33 (TLDRNSLYV; listed as Homo sapiens) [compound 33], 252 (SLMEKNQSL; listed as Homo sapiens) [compound 252], 124 (ALLLRLFTI; listed as Homo sapiens) [compound 124], 149 (NMADGQLHQV; listed as Homo sapiens) [compound 149], 85 (KLLDKPEQFL; listed as Homo sapiens) [compound 85]

Peptide exchange (MHC class I binding score, peptide exchange yield), + (≧10% = +):
53 (AQHLSTLLL; listed as Homo sapiens) [compound 53], 123 (QTAPEEAFIKL; listed as Homo sapiens) [compound 123]

Peptide exchange (MHC class I binding score, peptide exchange yield), +++ (≧50 = +++):
11 (LLDPKTIFL; listed as Homo sapiens) [compound 11], 13 (RLHDENILL; listed as Homo sapiens) [compound 13], 244 (NVAEIVIHI; listed as Homo sapiens) [compound 244], 218 (SLTGANITV; listed as Homo sapiens) [compound 218], 99 (TLFGIQLTEA; listed as Homo sapiens) [compound 99], 261 (GLAALAVHL; listed as Homo sapiens) [compound 261], 48 (KISDFGLATV; listed as Homo sapiens) [compound 48], 248 (VLMQDSRLYL; listed as Homo sapiens) [compound 248], 136 (LLWDAPAKC; listed as Homo sapiens) [compound 136], 180 (RLYEEEIRI; listed as Homo sapiens) [compound 180], 82 (ILAEEPIYIRV; listed as Homo sapiens) [compound 82], 274 (TLYNPERTITV; listed as Homo sapiens) [compound 274], 54 (YLVPGLVAA; listed as Homo sapiens) [compound 54], 112 (ILAQDVAQL; listed as Homo sapiens) [compound 112], 285 (MLLDTVQKV; listed as Homo sapiens) [compound 285], 181 (LLWAPTAQA; listed as Homo sapiens) [compound 181], 131 (SLYPHFTLL; listed as Homo sapiens) [compound 131], 223 (ALHPVQFYL; listed as Homo sapiens) [compound 223], 164 (MLIIRVPSV; listed as Homo sapiens) [compound 164], 59 (ALADGIKSFLL; listed as Homo sapiens) [compound 59], 86 (SLFSNIESV; listed as Homo sapiens) [compound 86], 200 (IMPTFDLTKV; listed as Homo sapiens) [compound 200], 182 (GLQDGFQITV; listed as Homo sapiens) [compound 182], 98 (FVQEKIPEL; listed as Homo sapiens) [compound 98], 140 (FLDSQITTV; listed as Homo sapiens) [compound 140], 175 (SLLDLVQSL; listed as Homo sapiens) [compound 175], 283 (ALSELLQQV; listed as Homo sapiens) [compound 283], 95 (KLIDEDEPLFL; listed as Homo sapiens) [compound 95], 26 (VLDGKVAVV; listed as Homo sapiens) [compound 26], 76 (FTAEFLEKV; listed as Homo sapiens) [compound 76], 168 (VIFEGEPMYL; listed as Homo sapiens) [compound 168], 191 (AAIEIFEKV; listed as Homo sapiens) [compound 191], 239 (VIIKGLEEITV; listed as Homo sapiens) [compound 239], 210 (GLAGDNIYL; listed as Homo sapiens) [compound 210]
